This sample holds only a part of the variants without activity.
B1: TPR 5TU (parent)
chain: GGAUCUUCUCGAUCUAACAAAAAAGACAAAUCUGCCACAAAGCUUGAGAGCAUCUUCGGAUGCAGAGGCGGCAGCCUUCGGUGGCGCGAUAGCGCCAACGUUCUCAACUAUGACACGCAAAACGCGUGCUCCGUUGAAUGGAGUUUAUCAUG

Variants of: B1
Assay: polymerase ribozyme fitness, log enrichment relative to wild type (log ratio); higher = more active; in vitro selection for triplet polymerase activity
Procedure, shortened: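 To select mutant libraries of each subunit of a heterodimeric triplet polymerase ribozyme, built by PCR and transcribed, each was annealed with a biotinylated primer, partner subunit and triplets, then incubated frozen at −7 °C. Extended constructs were gel-excised, captured on streptavidin beads and amplified by RT-PCR, in one round carried out in triplicate. Illumina sequencing of input and output libraries kept genotypes with ≥10 input reads and ≥1 read per output. Fitness is the base-2 logarithm of genotype enrichment relative to wild-type enrichment, from inverse-variance-weighted replicate averages.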

| Variant | polymerase ribozyme fitness (log ratio) |
| --- | --- |
| A20G A29C G46U C54U C96U C116A U148A | ≤ -4.2 |
| A20U A22G C51A G92A C93A C132U | ≤ -4.2 |
| A20U C54G C87U A115G C149U | ≤ -4.2 |
| A20U U31G U55A A73G C85G C87G U135C U148C | ≤ -4.2 |
| A20G A52G G58U C87U | -0.805 |
| A20G A21U A26U A29U A39C A91G G94U A97G C99A C131A A142G | ≤ -4.2 |
| A20U U56A A64C A107G G126U | ≤ -4.2 |
| A20U A47G G50U C85G | -3.77 |
| A21C A24U C38G C93U G117A | -2.15 |
| A20U A47U A89U C96U G128U | ≤ -4.2 |
| A21C C35U C75U G92C C96A C108U C131U A142C | ≤ -4.2 |
| A20G U102G A107U C116U A142U | ≤ -4.2 |
| A20G C36G G83A A91G A142G | ≤ -4.2 |
| A20U A29G A91C C93A G128U | ≤ -4.2 |
| A20G C125A | -0.707 |
| A20U A52U A89C | -3.39 |
| A20U A29U C43U A47G A49C C54G C95U C105A U145G A147G | ≤ -4.2 |
| A21C A30C A41U A64U C103G A115C A119C G128A G133U | ≤ -4.2 |
| A20U C54A A106C | -3.99 |
| A20U U31C A41C C51A | -2.21 |
| A21C A24G C38U G83A C99U | ≤ -4.2 |

| Variant | polymerase ribozyme fitness (log ratio) |
| --- | --- |
| A20G G42C G84A C149A | ≤ -4.2 |
| A20U C96U A98G | -1.71 |
| A20G C87U U148A | -3.21 |
| A21C A22U G86U U102C C116U A122G A138U | ≤ -4.2 |
| A20G C54U A60U C85A | -3.42 |
| A20G G81A C96U C114G U127G A142C | ≤ -4.2 |
| A20U C35A A41C C95U U145A | ≤ -4.2 |
| A20U U56A A73G G94A U101A | -2.45 |
| A21C A41U C76U G84A C95U U111G | -4.18 |
| A20U U55A A147C | -2.31 |
| A20U U53A A120G | -2.23 |
| A20C G46A C69G G94A | -2.22 |
| A20G C85U G94U C95G C125U | -3.59 |
| A20U A97U | -2.04 |
| A20G G50C C54G C76A C87G U90G C95U | ≤ -4.2 |
| A20C U31G U53A U55G A115C | -2.82 |
| A20U C35U G59C C75U C87U C99U A137U A138U | ≤ -4.2 |
| A20U U45A C118A | -3.82 |
| A20U U31G C43G A52U A73C C93U G94U C116G A121G C149U | ≤ -4.2 |
| A20C U55A G67C G124A A137U | ≤ -4.2 |
| A20U G48A A60G U139A A142C A147G | ≤ -4.2 |

| Variant | polymerase ribozyme fitness (log ratio) |
| --- | --- |
| A20U A52G C75U G88A C103G A119C | ≤ -4.2 |
| A20U G46C U56A C96U U135C A147G | ≤ -4.2 |
| A20U C54A | -2.02 |
| A20C U53A U55A | -2.52 |
| A20U U82G C93U | -2.36 |
| A20U G50A A89U A91G | ≤ -4.2 |
| A20U G25C G141A | -4.03 |
| A20G A47C G48C G50C U56C C87A C95G U139A G141A | -4.1 |
| A20U C57A G84U | -3.17 |
| A20G C51U | -0.842 |
| A20G A22U G70U C85G A110U A121C | ≤ -4.2 |
| A20U C27A C38G C54U C79U G112A | ≤ -4.2 |
| A20G C63A G74A C93A | ≤ -4.2 |
| A21C C87U A147U | 0.884 |
| A20C G65U U90G C93U C129A | ≤ -4.2 |
| A20G G34C C38A C76U U90C C114U | ≤ -4.2 |
| A20G G59C G70A | -4.05 |
| A20U A24G C32G U78A G83C | ≤ -4.2 |
| A20U G59U G136C G141U | -3.78 |
| A21C C51U A66G C85G | ≤ -4.2 |
| A20G C96A | -1.84 |

| Variant | polymerase ribozyme fitness (log ratio) |
| --- | --- |
| A20G U31G G86A | -1.52 |
| A20C U61A C63U C85U | -1.55 |
| A20G A28U G42C A49C C93G C103A | ≤ -4.2 |
| A20C U33A C43U G88U G92A A115C G126A C132U A147C | ≤ -4.2 |
| A20U C27U G42U A52C U55A C95G C96U | ≤ -4.2 |
| A20C U31G A40U | -0.279 |
| A20G G58A G81C A142C | -1.55 |
| A20U A22U A121U G128A C129U A137C A138C | ≤ -4.2 |
| A20C U53A | -2.16 |
| A21C A41U C57U A119U U134A U144A | -4.17 |
| A20C G136A | -0.55 |
| A20U A22U C43A G84C C108G C116G | ≤ -4.2 |
| A21C C35A A39C G100C G136U | ≤ -4.2 |
| A20G C38U A47C A60G C93U A106G G128U | ≤ -4.2 |
| A20U C93G | ≤ -4.2 |
| A20U C93A | -2.86 |
| A20U A28C G83U C87A C99G G140A | ≤ -4.2 |
| A21C C57A C85G U130G | -4 |
| A21C A26U A60C G70C G81A G84U G92A A115U | ≤ -4.2 |
| A20U A21C U102A C125G | -3.5 |

Source: the RNAGym collection of RNA variant scans (doi:10.1073/pnas.2313332121)
